# Laboratory results from US20110038894A1 (NATIONAL HEALTH RESEARCH INSTITUTES, published 2011).
# Biological target: His-tag fused human HLA-A2 heavy chain (His-HLA-A2) with His-Tag fused human β2-microglobulin (His-β2) (human)
# Test: MHC-peptide complex formation assay: refolding of His-HLA-A2, His-β2m and peptide, sandwich ELISA (W6/32 capture, anti-β2m detection), relative to positive control peptide
row,Binder,Relative binding (%)
1,"IVGGGLLML (also called TAL6 53-61) [TAL6 peptide No. 4 of Table 1, IVGGGLLML]",43.4
2,"AMLSSVLAA (also called TAL6 89-97) [TAL6 peptide No. 7 of Table 1, AMLSSVLAA]",115
3,"SILLALGGI (also called TAL6 164-172) [TAL6 peptide No. 13 of Table 1, SILLALGGI]",51.8
4,"MLSSVLAAL (also called TAL6 90-98) [TAL6 peptide No. 8 of Table 1, MLSSVLAAL]",163
5,"SLVGLALLC (also called TAL6 13-21) [TAL6 peptide No. 2 of Table 1, SLVGLALLC]",126
6,"CIGHSLVGL (also called TAL6 9-17) [TAL6 peptide No. 1 of Table 1, CIGHSLVGL]",93.3
7,"ALLCIAANI (also called TAL6 18-26) [TAL6 peptide No. 3 of Table 1, ALLCIAANI]",53.6
8,"VINGVLGGI (also called TAL6 181-189) [TAL6 peptide No. 16 of Table 1, VINGVLGGI]",59.1
9,"SLFSILLAL (also called TAL6 161-169) [TAL6 peptide No. 12 of Table 1, SLFSILLAL]",42.6
10,"LLMLLPAFV (also called TAL6 58-66) [TAL6 peptide No. 5 of Table 1, LLMLLPAFV]",134
11,"CLIQVINGV (also called TAL6 177-185) [TAL6 peptide No. 15 of Table 1, CLIQVINGV]",26.3
12,"HIVEWNVSL (also called TAL6 154-162) [TAL6 peptide No. 11 of Table 1, HIVEWNVSL]",91.1
13,"SVLAALIGI (also called TAL6 93-101) [TAL6 peptide No. 9 of Table 1, SVLAALIGI]",158
14,"MLLPAFVFI (also called TAL6 60-68) [TAL6 peptide No. 6 of Table 1, MLLPAFVFI]",155
15,"GLAEGPLCL (also called TAL6 114-122) [TAL6 peptide No. 10 of Table 1, GLAEGPLCL]",72.4
16,"ALGGIEFIL (also called TAL6 168-176) [TAL6 peptide No. 14 of Table 1, ALGGIEFIL]",113
